Source: paper PMC10130016, “Millisecond cryo-trapping by the spitrobot crystal plunger simplifies time-resolved crystallography” (Nature Communications, 2023)

Molecular target: T1, Salmonella typhimurium tryptophan synthase TrpB subunit (Salmonella typhimurium, UniProt P0A2K1 1-397, pyridoxal 5'-phosphate (PLP) as internal aldimine; Lys87 named in the active site)
T1 construct: Tryptophan synthase beta chain (TrpB), Salmonella typhimurium; also called TS β-subunit
T1 sequence: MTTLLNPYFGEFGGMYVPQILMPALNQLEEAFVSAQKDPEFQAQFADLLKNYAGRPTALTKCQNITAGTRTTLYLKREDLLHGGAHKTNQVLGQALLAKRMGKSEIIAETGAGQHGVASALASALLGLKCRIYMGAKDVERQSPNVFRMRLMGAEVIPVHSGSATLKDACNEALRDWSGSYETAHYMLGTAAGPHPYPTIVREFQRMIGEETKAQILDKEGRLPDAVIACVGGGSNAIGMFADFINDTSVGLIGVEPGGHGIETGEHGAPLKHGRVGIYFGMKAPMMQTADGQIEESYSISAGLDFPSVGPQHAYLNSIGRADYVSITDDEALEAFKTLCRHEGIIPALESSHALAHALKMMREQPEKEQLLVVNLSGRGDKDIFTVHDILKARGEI
Assay: crystal structure; TrpAB complex purified together; crystals from 17% (w/v) PEG 300, 0.1 M Tris-HCl pH 7.5, 20 mM cesium chloride, 18 °C, hanging drop; space group C 2, one TrpA and one TrpB in the asymmetric unit; cryo-trapped 0, 20, 25 and 30 s after LAMA mixing with indole, serine and G3P
Conditions: both partners purified

B1: Salmonella typhimurium tryptophan synthase TrpA subunit (enzyme)
chain: MERYENLFAQLNDRREGAFVPFVTLGDPGIEQSLKIIDTLIDAGADALELGVPFSDPLADGPTIQNANLRAFAAGVTPAQCFEMLALIREKHPTIPIGLLMYANLVFNNGIDAFYARCEQVGVDSVLVADVPVEESAPFRQAALRHNIAPIFICPPNADDDLLRQVASYGRGYTYLLSRSGVTGAENRGALPLHHLIEKLKEYHAAPALQGFGISSPEQVSAAVRAGAAGAISGSAIVKIIEKNLASPKQMLAELRSFVSAMKAASRA
notes: Tryptophan synthase alpha chain (TrpA), Salmonella typhimurium; also called TS alpha subunit
binding result: binds
